In US9885713B2, “Diagnosis and treatment of mycobacteria infections” (priority 2013, dated 2018):
“Also recorded” adds a separate entry of the source.

Columns and labels:
[1] = test system: Campylobacter jejuni 11168H; assay: Specificity control on protein covered gold surfaces (non-host bacteria); format: binding; conditions: C. jejuni; protein covered gold surface
Text: (§1) The concentrations of the two RBPs of Gp6, Gp-10 and Gp31 were optimized for immobilization. […] The specificity of recognition by the RBPs was confirmed by exposing similar surfaces to E. coli EC12 and Campylobacter jejuni 11168H strains of non-host bacteria.
(§2) Proteins were immobilized onto cysteamine covered gold surfaces that were activated with glutaraldehyde according to the previously described protocol where RBP samples were used instead of whole phage particles. Briefly, the gold substrates were fabricated using piranha cleaned silicon substrates by sputtering a 25 nm thick gold layer. The gold substrates were sonicated in acetone, isopropanol, ethanol and MilliQ (Millipore) water for 5 min each prior to their use (Branson Ultrasonics 1510, 40 kHz frequency). The gold substrates were incubated overnight at 40° C. in a 50 mM solution of cysteamine hydrochloride (Sigma-Aldrich). The cysteamine self assembled monolayer (SAM) substrates were modified by 2% glutaraldehyde (Sigma-Aldrich) for 1 hr at room temperature and washed twice in PBS. […] For fluorescence microscopy, the bacterial cells were stained with 50 μM resazurin (Sigma-Aldrich) for 20 min before exposure to the substrates covered with the immobilized proteins.
(§3) Bacterial cell binding to the gold surface covered with the immobilized protein was assessed as described previously. […]

M. marinum cells = assay: Cell binding assay: protein immobilized on gold surface, capture by SEM and fluorescence microscopy; design: species or system Mycobacterium marinum
Text: (§4) Mycobacteria phage L5 (HER-386) was obtained from the Felix D'Herelle Reference Centre for Bacterial Viruses (Laval University, Quebec, Canada). Mycobacterium marinum ATCC number 927, M. smegmatis mc^2 155 and M. avium subsp. paratuberculosis ATCC 19851 were used in the binding studies along with Campylobacter jejuni NCTC 11168H, Salmonella enterica subsp. enterica sv. Typhimurium ATCC 19585 and E. coli K-12. E. coli DH5α (Invitrogen) and E. coli BL21(DE3) (Invitrogen) were used for cloning and recombinant protein expression procedures, respectively. All mycobacterial strains were grown in ambient atmosphere. Middlebrook 7H9 (BD Biosciences) broth supplemented with oleic acid-albumin-dextrose catalase (BD Biosciences) and mycobactin J (Allied Monitor Inc.) was used to propagate M. smegmatis at 37° C. for 48 hrs as well as MAP cells at 37° C. for 10 days. […]
(§5) Proteins were immobilized onto cysteamine covered gold surfaces that were activated with glutaraldehyde according to the previously described protocol where RBP samples were used instead of whole phage particles. […] For fluorescence microscopy, the bacterial cells were stained with 50 μM resazurin (Sigma-Aldrich) for 20 min before exposure to the substrates covered with the immobilized proteins.
as §3

E. coli = assay: Specificity control on protein covered gold surfaces (non-host bacteria); format: binding, Escherichia coli; conditions: E. coli K12; protein covered gold surface
Text: as §1, §2, §3

[2] = test system: Mycobacterium smegmatis mc^2155; assay: Cell binding assay: protein immobilized on gold surface, capture by SEM and fluorescence microscopy; conditions: for Capture efficiency of M. smegmatis cells: 20 μg/ml protein solution used for immobilization onto gold chip; for bacterial capture: gold surface, 20 μg/ml of RBP, Mycobacterium smegmatis mc^2155; for capture/binding of M. smegmatis cells (in words): protein immobilized on gold surface, 20 μg/ml
Text: (§6) In order to assess mycophage and mycophage RBPs for their use as probes of MAP infection, Gp-10 and Gp-6 were immobilized using an established protocol (Singh et. al. Biosens. Bioelect. 26 131 (2010) and used for the specific bacterial capture. Gold Surfaces were modified by cysteamine hydrochloride followed by activation using 2% gluteraldehyde. The recombinant proteins Gp-10, Gp-6 and Gp-31 were immobilized over the surfaces in order to capture the host bacteria Mycobacterium avium subsp. paratuberculosis ATCC 19851 and Mycobacterium smegmatis mc^2155. Bacterial capture was confirmed by fluorescence microscopy and Scanning Electron Microscopy (SEM). Nonspecific attachment was prevented by using bovine serum albumin (BSA) as the blocking layer. A negative control was run in parallel where a similar gold surface was treated with all reagents, but they were not exposed to the recombinant phage proteins.
(§7) Proteins were immobilized onto cysteamine covered gold surfaces that were activated with glutaraldehyde according to the previously described protocol where RBP samples were used instead of whole phage particles. Briefly, the gold substrates were fabricated using piranha cleaned silicon substrates by sputtering a 25 nm thick gold layer. The gold substrates were sonicated in acetone, isopropanol, ethanol and MilliQ (Millipore) water for 5 min each prior to their use (Branson Ultrasonics 1510, 40 kHz frequency). The gold substrates were incubated overnight at 40° C. in a 50 mM solution of cysteamine hydrochloride (Sigma-Aldrich). The cysteamine self assembled monolayer (SAM) substrates were modified by 2% glutaraldehyde (Sigma-Aldrich) for 1 hr at room temperature and washed twice in PBS. These modified substrates were incubated in a 20 μg/ml solution of Gp10 (or Gp6) in PBS overnight at […]. The negative control substrate was incubated in PBS only. To block nonspecific binding of bacteria, the substrates were incubated in 1 mg/ml of bovine serum albumin (Sigma-Aldrich) and were washed twice in PBS. The protein covered substrates were exposed to 10^9 cfu/ml of mycobacterial cells in PBS for 1 hr at room temperature. The immobilized surfaces were washed in 0.05 Tween 20 (Sigma-Aldrich) before analysis. For fluorescence microscopy, the bacterial cells were stained with 50 μM resazurin (Sigma-Aldrich) for 20 min before exposure to the substrates covered with the immobilized proteins.
(§8) Bacterial cell binding to the gold surface covered with the immobilized protein was assessed as described previously. Scanning electron microscopy (SEM) and fluorescent microscopy (FM) were used to estimate the number of bacterial cells bound to the surfaces. The samples were fixed with 2% glutaraldehyde for 2 hrs at room temperature followed by a gradient of ethanol from 50% to 100% before SEM. Finally the samples were dried by nitrogen gas. SEM imaging was performed using a Hitachi S-4800/LEO 1430 microscope. Cells were prestained using 50 μM of resazurin stain (Sigma-Aldrich) for the FM-based binding assay. An Olympus IX81 microscope equipped with a FITC filter and a Roper Scientific Cool-Snaps HQ CCD Camera were Used to Record the FM Images. ImageJ Software (USA NIH) was used to analyze the microscopy images. Average numbers of cells bound to the surface are indicated on the basis of the assessment of the cell number, fields of view, and using 8 gold covered chips per test.

[3] = test system: Mycobacterium avium subsp. paratuberculosis ATCC 19851; assay: as above; conditions: for capture/binding of MAP cells (in words): protein immobilized on gold surface, 20 μg/ml (Gp6 also 40 μg/ml)
Text: as §6, §7, §8

S. Typhimurium = assay: Specificity control on protein covered gold surfaces (non-host bacteria); format: binding, Salmonella enterica subsp. enterica sv. Typhimurium; conditions: protein covered gold surface
Text: as §4, §5, §3

[4] = target: T1, peptidoglycan from Bacillus subtilis (Mycobacterium phage L5, UniProt Q05285, I224V/T32I); assay: Peptidoglycan binding assay
T1 construct: pET-30a(+) vector-encoded N-terminal leader (additional residues up to the EcoRI site) (N); made in house; host or cells: E. coli BL21(DE3)
Protocol: Dehydrated peptidoglycan from Bacillus subtilis (Sigma-Aldrich) was suspended in water to obtain a 10 mg/ml stock that was stored at −20° C. This stock was diluted further in water to obtain a 1 mg/ml working stock solution that was used in the experiments and was prepared fresh each time. A 0.1 mg/ml sample of Gp10 in PBS was incubated with peptidoglycan at a final concentration of 0.1 mg/ml for 30 min at room temperature with occasional stirring. Then, the peptidoglycan was separated from the protein solution by centrifugation (15 min at 18 000 g at 4° C.), an aliquot of the supernatant was mixed with the SDS-sample buffer and analyzed by SDS-PAGE.

T1 sequence (Q05285 other isoform, or with tags, fused parts or gaps T32I/I224V): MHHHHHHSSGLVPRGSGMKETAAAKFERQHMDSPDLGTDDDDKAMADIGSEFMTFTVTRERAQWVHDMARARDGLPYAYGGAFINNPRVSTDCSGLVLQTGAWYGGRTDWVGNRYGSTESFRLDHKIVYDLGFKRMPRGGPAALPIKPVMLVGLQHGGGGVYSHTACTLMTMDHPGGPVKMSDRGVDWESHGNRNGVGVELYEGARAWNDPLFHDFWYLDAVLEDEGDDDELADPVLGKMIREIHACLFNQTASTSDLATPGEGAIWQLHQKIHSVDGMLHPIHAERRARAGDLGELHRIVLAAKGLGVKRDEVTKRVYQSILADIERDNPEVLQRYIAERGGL

B1: Gp6: recombinant His-tagged minor tail protein Gp6 of mycobacteriophage L5 (SEQ ID NO: 1) (protein)
chain: MHHHHHHSSGLVPRGSGMKETAAAKFERQHMDSPDLGTDDDDKAMADIGSEFMADLGNPLDLEMLCLVTGRDFRWTIDYPWGPGELFLELETGGEHNALHQVYVTGATGGTYTLNVNGTNTPAIDYNDVSENPQGLAGDIQDALDAAVGAGNAVVHPVSLFPAWTLNFNLNASKPLTEQLVNTINKAANDFFDTFDQLLGVDVEMTVTDTLNFKLKVTSRRSFDEVGVVTFAVDVTSQAVINFFNSVAELTGAVNTVNVDFYWNRTYDIEFTGSLGLQPIPATTADITNLAGTSKAVSVTVVEPGKKRLTIWPFTVNGETATIKVESEEADKIPNRCRWQLVHMPTGEAAGGDAKQLGRVYRQPR
modifications: His6 tag
bacterial capture of non-host bacteria (in words) [1]: no bacterial capture
capture of M. marinum cells (in words) (M. marinum cells): Neither of the two proteins was able to capture; also recorded: Neither Gp6 nor Gp10 was able to serve as a capturing agent
bacterial capture of non-host bacteria (in words) (E. coli): no bacterial capture
Capture efficiency of M. smegmatis cells [2]: 31.3±1.5×10^−3 cells/μm^2
bacterial capture [2]: 31.3×10^−3 /μm^2
capture/binding of M. smegmatis cells (in words) [2]: M. smegmatis specific; also recorded: bind only M. smegmatis cells
capture/binding of MAP cells (in words) ([3]; listed as Gp 6): did not capture any MAP cells
capture/binding of MAP cells (in words) ([3]; listed as Gp-6): not showing any bacterial capture
bacterial capture of non-host bacteria (in words) (S. Typhimurium): no bacterial capture

B2: Gp10: recombinant His-tagged lysin Gp10 of mycobacteriophage L5 (SEQ ID NO: 3) (protein)
chain: MHHHHHHSSGLVPRGSGMKETAAAKFERQHMDSPDLGTDDDDKAMADIGSEFMTFTVTRERAQWVHDMARARDGLPYAYGGAFTNNPRVSTDCSGLVLQTGAWYGGRTDWVGNRYGSTESFRLDHKIVYDLGFKRMPRGGPAALPIKPVMLVGLQHGGGGVYSHTACTLMTMDHPGGPVKMSDRGVDWESHGNRNGVGVELYEGARAWNDPLFHDFWYLDAVLEDEGDDDELADPVLGKMIREIHACLFNQTASTSDLATPGEGAIWQLHQKIHSIDGMLHPIHAERRARAGDLGELHRIVLAAKGLGVKRDEVTKRVYQSILADIERDNPEVLQRYIAERGGL
modifications: His6 tag
peptidoglycan binding (in words) ([4]; Gp10 purified from the soluble fraction, 0.1 mg/ml Gp10, 0.1 mg/ml peptidoglycan, 30 min, SDS-PAGE of supernatant): selectively remove recombinant Gp10 from the solution
peptidoglycan binding (in words) ([4]; refolded sample of Gp10 after 8 M urea extraction): retained the ability to bind peptidoglycan
bacterial capture of non-host bacteria (in words) [1]: no bacterial capture
capture of M. marinum cells (in words) (M. marinum cells): Neither of the two proteins was able to capture; also recorded: Neither Gp6 nor Gp10 was able to serve as a capturing agent
bacterial capture of non-host bacteria (in words) (E. coli): no bacterial capture
Capture efficiency of M. smegmatis cells [2]: 28.7±1.18×10^−3 cells/μm^2
bacterial capture [2]: 28.7×10^−3 /μm^2
capture/binding of M. smegmatis cells (in words) [2]: able to bind; also recorded: specifically bind
bacterial capture ([3]; gold surface, 20 μg/ml of RBP, MAP ATCC 19851): 12.3×10^−3 /μm^2
capture/binding of MAP cells (in words) [3]: able to bind; also recorded: specifically bind
bacterial capture of non-host bacteria (in words) (S. Typhimurium): no bacterial capture

B3: Gp-31: recombinant His-tagged Gp-31 protein of mycobacteriophage L5 (SEQ ID NO: 5) (protein)
chain: MHHHHHHSSGLVPRGSGMKETAAAKFERQHMDSPDLGTDDDDKAMADIGSEFVTYPTNPLEAIGADGAFEIGGGDWSFGQDYTEQAIRALFTMPAVTMENALGLLEEHLLKLPLEALQGFKDMIPDWVEGAFDTVTGAVQAIMNALQDGPLFLKFAEFQLFLQRLLNNPAEVIGEIPQTLIDGLQDALNTVNNTIQTIVDMLLQALGITPEGELIDRIFDLSDEMEWLQTAASNAATGIQDTWNKFWGALTGRVPDQDQTVAEPAERIGELAGTTSANSSAIAELQRRLDNQQNAGGVAGGDDFERLNISGWDIRYSNGSSGRGYYRADGHQLVWMDEGNQQNTATFVRTNPADEKTATDYQKMTLVVGTISGEVQTVFPPQGGSHTRLWVRVNDNAPTVGITDGVFVEIGGVSKAQIGYRRNGNDTFVGSMVDCTWGAGSIFALTAGTANGAEKFEVSKNGPVLATWSDDGVVSAMGANYRRWGWEGQARNRNLGQGTPNSVTRVTITDNDPTGAGGGAVNVGGDVVGVLPIENGGTGASTASAARTALGIDDLVEDMSDVVRGSVEGLPLIPKIWVGTEAQYTALATKDQSTLYFRTA
modifications: His tag
capture/binding of M. smegmatis cells (in words) [2]: no significant bacterial capture
capture/binding of MAP cells (in words) [3]: no significant bacterial capture
